Test results published in patent US20250064934A1 (CENTURY THERAPEUTICS, published 2025).

Legend:
[1] = target: T1, CD22 expressed on the cell surface (Raji, Daudi, CHO-CD22 and other CD22+ cells) (UniProt P20273 20-847, limits assumed); test: flow cytometry on Raji cells, PE-labeled anti-human IgG Fc detection
T1 construct: whole, on cells; also called CD22 positive Raji cells; CD22+ Raji cells
T1 sequence (looked up): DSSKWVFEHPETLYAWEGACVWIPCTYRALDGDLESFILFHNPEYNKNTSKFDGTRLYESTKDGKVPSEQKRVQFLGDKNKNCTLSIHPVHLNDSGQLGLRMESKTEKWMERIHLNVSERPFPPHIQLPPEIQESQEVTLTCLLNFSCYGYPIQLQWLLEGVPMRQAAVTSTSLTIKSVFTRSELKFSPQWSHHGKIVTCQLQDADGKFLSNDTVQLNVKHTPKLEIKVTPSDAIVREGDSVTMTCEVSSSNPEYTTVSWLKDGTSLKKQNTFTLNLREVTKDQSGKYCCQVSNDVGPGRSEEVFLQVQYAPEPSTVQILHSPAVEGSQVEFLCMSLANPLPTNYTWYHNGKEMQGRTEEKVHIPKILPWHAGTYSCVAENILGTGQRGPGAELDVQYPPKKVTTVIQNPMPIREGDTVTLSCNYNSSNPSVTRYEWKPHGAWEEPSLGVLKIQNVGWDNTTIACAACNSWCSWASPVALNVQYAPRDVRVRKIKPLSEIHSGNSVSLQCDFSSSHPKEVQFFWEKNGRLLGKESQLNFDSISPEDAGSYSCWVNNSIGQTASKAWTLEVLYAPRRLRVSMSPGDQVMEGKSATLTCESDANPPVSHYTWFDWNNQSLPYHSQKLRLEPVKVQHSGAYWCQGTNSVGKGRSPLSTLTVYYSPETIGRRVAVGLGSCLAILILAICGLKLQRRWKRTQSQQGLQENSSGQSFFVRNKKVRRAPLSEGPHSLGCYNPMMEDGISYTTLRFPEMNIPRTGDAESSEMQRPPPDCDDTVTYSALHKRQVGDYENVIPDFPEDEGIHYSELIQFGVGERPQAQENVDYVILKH
Protocol: FIGS. 1A-C show results of VHH-Fc fusion proteins that were examined by flow cytometry for CD22 cellular binding in Raji cells. […] No binding was seen to Raji CD22 knock-out cells. B) PROT265 and PROT810 (an affinity matured variant of PROT265) bind to Raji cells, with PROT810 showing improved binding relative to PROT265.
(§1) VHH-Fc proteins were tested for binding to CD22 expressed on the cell surface. VHH-Fc proteins were serially diluted and added to Raji cells and incubated at 4 C for 30 minutes. Cells were washed once in BD staining buffer, BSA (BD Pharmingen), then PE-labeled anti-human IgG Fc (Jackson Immnoresearch) was added to detect VHH-Fc cell binding and incubated at 4 C for 30 minutes. Cells were washed once, then resuspended in staining buffer with 0.1% pluronic acid and run through a flow cytometer to detect the fluorescent labeling of the VHH-Fc cells.

[2] = target: T2, monomeric CD22 (Acro Biosystems) (UniProt P20273 20-687); test: BLI (ForteBio Octet Red), VHH-Fc captured on anti-human IgG Fc sensor, monomeric CD22 at 250 nM
T2 construct: Bought protein; also called CD22 antigen; soluble CD22 protein
T2 sequence (looked up): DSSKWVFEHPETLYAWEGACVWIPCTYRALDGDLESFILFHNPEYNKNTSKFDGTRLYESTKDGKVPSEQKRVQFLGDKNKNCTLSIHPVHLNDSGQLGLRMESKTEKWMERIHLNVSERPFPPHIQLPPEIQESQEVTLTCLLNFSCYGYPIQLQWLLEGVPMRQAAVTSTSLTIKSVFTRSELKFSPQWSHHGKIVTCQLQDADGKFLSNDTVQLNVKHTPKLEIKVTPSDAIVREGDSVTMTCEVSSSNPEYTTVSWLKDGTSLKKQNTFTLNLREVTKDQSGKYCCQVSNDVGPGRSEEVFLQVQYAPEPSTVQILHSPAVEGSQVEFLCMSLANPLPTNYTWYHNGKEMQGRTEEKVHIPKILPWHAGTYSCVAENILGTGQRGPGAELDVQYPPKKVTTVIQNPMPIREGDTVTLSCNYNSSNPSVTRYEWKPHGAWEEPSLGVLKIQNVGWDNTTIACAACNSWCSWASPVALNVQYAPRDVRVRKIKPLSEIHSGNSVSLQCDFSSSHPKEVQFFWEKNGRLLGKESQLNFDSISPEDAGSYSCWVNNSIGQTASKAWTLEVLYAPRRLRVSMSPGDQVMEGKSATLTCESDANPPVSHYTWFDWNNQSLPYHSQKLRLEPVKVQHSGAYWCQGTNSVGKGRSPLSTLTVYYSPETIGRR
Protocol: (§2) VHH-Fc fusion proteins were assessed for affinity against monomeric CD22 (Acro Biosystems) using the ForteBio Octet Red BLI instrument. VHH-Fc proteins were captured onto an anti-human IgG Fc sensor at 50 nM. Sensor tips were quenched with human IgG Fc protein at 100 nM, then CD22 antigen was added at 250 nM to assess binding kinetics. Association was examined for 600 seconds and dissociation was examined for 600 seconds, allowing for calculation of Kon, Kdis and KD.

[3] = target: T1, CD22 expressed on the cell surface …; test: cell-based or functional assay
[4] = target: T2, monomeric CD22 (Acro Biosystems); test: protein affinity of VHH-IgG1 Fc fusions (summary sentence, method not named there); before affinity maturation
Protocol: as §2

[5] = target: T1, CD22 expressed on the cell surface …; test: flow cytometry on Raji cells, serially diluted VHH-Fc, detection with PE anti-human IgG Fc, % positive cells
Protocol: as §1

[6] = target: T2, monomeric CD22 (Acro Biosystems); test: BLI affinity assessment of VHH-Fc fusions
Protocol: as §2
(§3) The D04 clone was affinity matured by scanning mutagenesis of the CDRs and phage display selections for higher affinity clones. Variants were isolated and expressed as VHH-Fc fusions for affinity assessment.

[7] = target: T2, monomeric CD22 (Acro Biosystems); test: protein affinity of VHH-IgG1 Fc fusions (summary sentence, method not named there); after affinity maturation of CDR3
Protocol: as §2, §3

Binder | EC50 [1] [nM] | Kd [2] [nM] | koff [2] [s⁻¹] | kon [2] [M⁻¹ s⁻¹] | Raji cell killing by CAR-T cells (flow cytometry, 48 hours) [3] [%] | Kd [4] [nM] | EC50 (read off the curve) [5] [nM] | fold improvement of affinity over the D04 clone [6] [fold] | Kd [7] [nM]
PROT739 (A01) VHH-Fc fusion protein (Fc fusion, VHH fused to the human IgG1 Fc domain; not shown: human IgG1 Fc domain) EVQLLESGGGLVQPGGSLRLSCAASGLTSYSYAMGWYRQAPGKEREFVSAISSGGSAYYADSVKGRFTISRDNSKNTLYLQMNSLRAEDTAVYYCAVGPYYGFRAVTEADYWGQGTQVTVSS | ~2 | 96.1 | 0.0102 | 106000 | – | – | – | – | –
tandem VHH CAR E04-D04_AM_D11 (P1738) (bispecific antibody, part only; not given: which CAR backbone was used, part only) chain, part: EVQLLESGGGLVQPGGSLRLSCAASGFTSSSYVMGWYRQAPGKEREFVSSISTGGDAYYADSVKGRFTISRDNSKNTLYLQMNSLRAEDTAVYYCAADVWYYHGGAYDYWGQGTQVTVSSGSTSGSGKPGSGEGSTKGQVQLVESGGGLVQAGGSLRLSCAASGSEFTGYPMGWFRQAPGKEREFVAGSVGIGGSTNYADSVKGRFTISRDNAKNTVYLQMNSLKPEDTAVYYCAADKDYYKPYSRYRTAIRYDTWGQGTQVTVSS | – | – | – | – | < 20 | – | – | – | –
tandem VHH CAR D04_AM_D11-E04 (P1730) (bispecific antibody, part only; not given: which CAR backbone was used, part only) chain, part: QVQLVESGGGLVQAGGSLRLSCAASGSEFTGYPMGWFRQAPGKEREFVAGSVGIGGSTNYADSVKGRFTISRDNAKNTVYLQMNSLKPEDTAVYYCAADKDYYKPYSRYRTAIRYDTWGQGTQVTVSSGSTSGSGKPGSGEGSTKGEVQLLESGGGLVQPGGSLRLSCAASGFTSSSYVMGWYRQAPGKEREFVSSISTGGDAYYADSVKGRFTISRDNSKNTLYLQMNSLRAEDTAVYYCAADVWYYHGGAYDYWGQGTQVTVSS | – | – | – | – | 40 | – | – | – | –
PROT265 (D04) VHH-Fc fusion protein (Fc fusion, also called CD22_D04; not shown: human IgG1 Fc domain) QVQLVESGGGLVQAGGSLRLSCAASGSEFTGYPMGWFRQAPGKEREFVAGSVGIGGSTNYADSVKGRFTISRDNAKNTVYLQMNSLKPEDTAVYYCAADKDYYKPYSRYRTVIRYETWGQGTQVTVSS | – | 31.9 | 0.00257 | 80800 | – | 30 | ~1 | – | –
PROT810 (D04-AM-D11) VHH-Fc fusion protein (Fc fusion, I took that entry to be D04-AM-D11 on the strength of the name; also called DO4-D11-CD22 VHH; not shown: human IgG1 Fc domain) QVQLVESGGGLVQAGGSLRLSCAASGSEFTGYPMGWFRQAPGKEREFVAGSVGIGGSTNYADSVKGRFTISRDNAKNTVYLQMNSLKPEDTAVYYCAADKDYYKPYSRYRTAIRYDTWGQGTQVTVSS | – | 6.97 | 0.000657 | 94300 | – | – | – | 5 | 5
PROT740 (E04) VHH-Fc fusion protein (Fc fusion, VHH fused to the human IgG1 Fc domain; not shown: human IgG1 Fc domain) EVQLLESGGGLVQPGGSLRLSCAASGFTSSSYVMGWYRQAPGKEREFVSSISTGGDAYYADSVKGRFTISRDNSKNTLYLQMNSLRAEDTAVYYCAADVWYYHGGAYDYWGQGTQVTVSS | ~2 | 23.3 | 0.000536 | 23000 | – | – | – | – | –
